From US20250101122A1 (KELONIA THERAPEUTICS, published 2025)
Changes are numbered by the printed parent chain.

B1: anti-BCMA CAR of recombinant lentivirus LV 12 (SEQ ID NO: 669) (other)
chain: EVQLLESGGGLVQPGGSLRLSCAASGFTFEDYAMSWFRQAPGKEREGVSAISGKGGSTYYADSVKGRFTISRDNSKNTLYLQMNSLRAEDTAVYYCAVLDEEAGAEGGYWGQGTQVTVSSTTTPAPRPPTPAPTIASQPLSLRPEACRPAAGGAVHTRGLDFACDIYIWAPLAGTCGVLLLSLVITLYCKRGRKKLLYIFKQPFMRPVQTTQEEDGCSCRFPEEEEGGCELRVKFSRSADAPAYQQGQNQLYNELNLGRREEYDVLDKRRGRDPEMGGKPRRKNPQEGLYNELQKDKMAEAYSEIGMKGERRRGKGHDGLYQGLSTATKDTYDALHMQALPPR
notes: Chimeric antigen receptor on the surface of transduced cells; CD8α hinge and TM, CD137, CD3ζ
B2: anti-BCMA CAR of recombinant lentivirus LV 13 (SEQ ID NO: 693) (other)
chain: B1 chain with E30D, D31R, G53T, K54S, G56D
notes: as for B1
B3: anti-BCMA CAR of recombinant lentivirus LV 8 (SEQ ID NO: 525) (other)
chain: DIQMTQSPSSLSASVGDRVTITCQASQDIANYLNWYQQKPGKAPKLLIYDASNLETGVPSRFSGSGSGTDFTFTISSLQPEDIATYYCQQHFNLPLTFGGGTKVEIKGGGGSGGGGSGGGGSGGGGSQITLKESGPTLVKPTQTLTLTCTFSGFSLSTSGVGVGWIRQPPGKALEWLALIYWNDEKRYSPSLKSRLTITKDTSKNQVVLTMTNMDPVDTAVYYCAREGSHDYKSSNWFDPWGQGTLVTVSSTTTPAPRPPTPAPTIASQPLSLRPEACRPAAGGAVHTRGLDFACDIYIWAPLAGTCGVLLLSLVITLYCKRGRKKLLYIFKQPFMRPVQTTQEEDGCSCRFPEEEEGGCELRVKFSRSADAPAYQQGQNQLYNELNLGRREEYDVLDKRRGRDPEMGGKPRRKNPQEGLYNELQKDKMAEAYSEIGMKGERRRGKGHDGLYQGLSTATKDTYDALHMQALPPR
notes: as for B1
B4: anti-BCMA CAR of recombinant lentivirus LV 9 (SEQ ID NO: 597) (other)
chain: EVQLLESGGGLVQPGGSLRLSCAASGFTFGSEAMSWVRQAPGKERELVSAISGSGEVTYYADSVKGRFTISRDNSKNTLYLQMNSLRAEDTAVYYCQRLVEAKRHWGQGTQVTVSSTTTPAPRPPTPAPTIASQPLSLRPEACRPAAGGAVHTRGLDFACDIYIWAPLAGTCGVLLLSLVITLYCKRGRKKLLYIFKQPFMRPVQTTQEEDGCSCRFPEEEEGGCELRVKFSRSADAPAYQQGQNQLYNELNLGRREEYDVLDKRRGRDPEMGGKPRRKNPQEGLYNELQKDKMAEAYSEIGMKGERRRGKGHDGLYQGLSTATKDTYDALHMQALPPR
notes: as for B1
B5: anti-BCMA CAR of recombinant lentivirus LV 18 (SEQ ID NO: 837) (other)
chain: EVQLLESGGGLVQPGGSLRLSCAASGFTFSSEGMSWVRQAPGKERELVSAISGSGDHTYYADSVRGRFTISRDNSKNTLYLQMNSLRAEDTAVYYCNALEGGPTTAIQPGGPDYWGQGTQVTVSSTTTPAPRPPTPAPTIASQPLSLRPEACRPAAGGAVHTRGLDFACDIYIWAPLAGTCGVLLLSLVITLYCKRGRKKLLYIFKQPFMRPVQTTQEEDGCSCRFPEEEEGGCELRVKFSRSADAPAYQQGQNQLYNELNLGRREEYDVLDKRRGRDPEMGGKPRRKNPQEGLYNELQKDKMAEAYSEIGMKGERRRGKGHDGLYQGLSTATKDTYDALHMQALPPR
notes: as for B1
B6: anti-BCMA CAR of recombinant lentivirus LV 3 (SEQ ID NO: 261) (other)
chain: QVQLVESGGGVVQPGRSLRLSCAASGFTFSSYGMHWVRQAPGKGLEWVAVISYEGSNKYYADSVKGRFTISRDNSKNTLYLQMNSLRAEDTAVYYCARELGDGMDVWGQGTTVTVSSGGGGSGGGGSGGGGSGGGGSEIVLTQSPATLSLSPGERATLSCRASQSVSSYLAWFQQKPGQAPRLLIYDASNRATGIPARFSGSGSGTDFTLTISSLEPEDFAVYYCQQRVDLWTFGGGTKVEIKTTTPAPRPPTPAPTIASQPLSLRPEACRPAAGGAVHTRGLDFACDIYIWAPLAGTCGVLLLSLVITLYCKRGRKKLLYIFKQPFMRPVQTTQEEDGCSCRFPEEEEGGCELRVKFSRSADAPAYQQGQNQLYNELNLGRREEYDVLDKRRGRDPEMGGKPRRKNPQEGLYNELQKDKMAEAYSEIGMKGERRRGKGHDGLYQGLSTATKDTYDALHMQALPPR
notes: as for B1
B7: anti-BCMA CAR of recombinant lentivirus LV 11 (SEQ ID NO: 645) (other)
chain: EVQLLESGGGLVQPGGSLRLSCAASGFTFDEYTMHWFRQAPGKEREFVSAISGGGSETYYADSVKGRFTISRDNSKNTLYLQMNSLRAEDTAVYYCAAGGEEAGVGYWGQGTQVTVSSTTTPAPRPPTPAPTIASQPLSLRPEACRPAAGGAVHTRGLDFACDIYIWAPLAGTCGVLLLSLVITLYCKRGRKKLLYIFKQPFMRPVQTTQEEDGCSCRFPEEEEGGCELRVKFSRSADAPAYQQGQNQLYNELNLGRREEYDVLDKRRGRDPEMGGKPRRKNPQEGLYNELQKDKMAEAYSEIGMKGERRRGKGHDGLYQGLSTATKDTYDALHMQALPPR
notes: as for B1
B8: anti-BCMA CAR of recombinant lentivirus LV 10 (SEQ ID NO: 621) (other)
chain: EVQLLESGGGLVQPGGSLRLSCAASGFTFESEAMSWYRQAPGKERELVSVITSEGSTYYADSVKGRFTISRDNSKNTLYLQMNSLRAEDTAVYYCAHIEWETRLNWGQGTQVTVSSTTTPAPRPPTPAPTIASQPLSLRPEACRPAAGGAVHTRGLDFACDIYIWAPLAGTCGVLLLSLVITLYCKRGRKKLLYIFKQPFMRPVQTTQEEDGCSCRFPEEEEGGCELRVKFSRSADAPAYQQGQNQLYNELNLGRREEYDVLDKRRGRDPEMGGKPRRKNPQEGLYNELQKDKMAEAYSEIGMKGERRRGKGHDGLYQGLSTATKDTYDALHMQALPPR
notes: as for B1
B9: anti-BCMA CAR of recombinant lentivirus LV 5 (SEQ ID NO: 357) (other)
chain: QVQLVESGGGLVKPGGSLRLSCAASGFTFSDYYMSWIRQAPGKGLEWVSYISSSGSTIYYADSVKGRFTISRDNAKNSLYLQMNSLRAEDTAVYYCARDQGNYGVDVWGQGTTVTVSSGGGGSGGGGSGGGGSGGGGSDIQMTQSPSTLSASVGDRVTITCRASQSISSWLAWYQQKPGKAPKLLIYEASSLESGVPSRFSGSGSGTEFTLTISSLQPDDFATYYCQQSDSHPITFGGGTKVEIKTTTPAPRPPTPAPTIASQPLSLRPEACRPAAGGAVHTRGLDFACDIYIWAPLAGTCGVLLLSLVITLYCKRGRKKLLYIFKQPFMRPVQTTQEEDGCSCRFPEEEEGGCELRVKFSRSADAPAYQQGQNQLYNELNLGRREEYDVLDKRRGRDPEMGGKPRRKNPQEGLYNELQKDKMAEAYSEIGMKGERRRGKGHDGLYQGLSTATKDTYDALHMQALPPR
notes: as for B1
B10: anti-BCMA CAR of recombinant lentivirus LV 1 (SEQ ID NO: 189) (other)
chain: EIVLTQSPATLSLSPGERATLSCRASQSVSSYLAWYQQKPGQAPRLLIYDASNRATGIPARFSGSGSGTDFTLTISSLEPEDFAVYYCQQRVVYPITFGGGTKVEIKGGGGSGGGGSGGGGSGGGGSQITLKESGPTLVKPTQTLTLTCTFSGFSLSTSGVGVGWIRQPPGKALEWLALIYWNDEKRYSPSLKSRLTITKDTSKNQVVLTMTNMDPVDTAVYYCARDEYGGFDIWGQGTMVTVSSTTTPAPRPPTPAPTIASQPLSLRPEACRPAAGGAVHTRGLDFACDIYIWAPLAGTCGVLLLSLVITLYCKRGRKKLLYIFKQPFMRPVQTTQEEDGCSCRFPEEEEGGCELRVKFSRSADAPAYQQGQNQLYNELNLGRREEYDVLDKRRGRDPEMGGKPRRKNPQEGLYNELQKDKMAEAYSEIGMKGERRRGKGHDGLYQGLSTATKDTYDALHMQALPPR
notes: Chimeric antigen receptor on the surface of transduced cells; CD8α hinge and TM, CD137 costimulatory domain, CD3ζ
B11: anti-BCMA CAR of recombinant lentivirus LV 2 (SEQ ID NO: 237) (other)
chain: B10 chain with V92F, V93D, E185D
notes: as for B1
B12: anti-BCMA CAR of recombinant lentivirus LV 15 (SEQ ID NO: 741) (other)
chain: EVQLLESGGGLVQPGGSLRLSCAASGFTFDSYTMSWYRQAPGKERELVSAISGHGDSTYYADSVKGRFTISRDNSKNTLYLQMNSLRAEDTAVYYCTRISITTEWLAGDYWGQGTQVTVSSTTTPAPRPPTPAPTIASQPLSLRPEACRPAAGGAVHTRGLDFACDIYIWAPLAGTCGVLLLSLVITLYCKRGRKKLLYIFKQPFMRPVQTTQEEDGCSCRFPEEEEGGCELRVKFSRSADAPAYQQGQNQLYNELNLGRREEYDVLDKRRGRDPEMGGKPRRKNPQEGLYNELQKDKMAEAYSEIGMKGERRRGKGHDGLYQGLSTATKDTYDALHMQALPPR
notes: as for B1
B13: anti-BCMA CAR of recombinant lentivirus LV 7 (SEQ ID NO: 477) (other)
chain: DIQMTQSPSSLSASVGDRVTITCRASQSISSYLNWYQQKPGKAPKLLIYAASSLQSGVPSRFSGSGSGTDFTLTISSLQPEDFATYYCQQAHSSPITFGGGTKVEIKGGGGSGGGGSGGGGSGGGGSEVQLLESGGGLVQPGGSLRLSCAASGFTFSNYAMSWVRQAPGKGLEWVSAISGSGGSTYYADSVKGRFTISRDNSKNTLYLQMNSLRAEDTAVYYCARPGDGYYEGVYFDYWGQGTLVTVSSTTTPAPRPPTPAPTIASQPLSLRPEACRPAAGGAVHTRGLDFACDIYIWAPLAGTCGVLLLSLVITLYCKRGRKKLLYIFKQPFMRPVQTTQEEDGCSCRFPEEEEGGCELRVKFSRSADAPAYQQGQNQLYNELNLGRREEYDVLDKRRGRDPEMGGKPRRKNPQEGLYNELQKDKMAEAYSEIGMKGERRRGKGHDGLYQGLSTATKDTYDALHMQALPPR
notes: as for B1

Each binder was assayed against T1, recombinant, phycoerythrin (PE) labeled, BCMA extracellular domain-FC fusion protein (BCMA-PE) (Homo sapiens (Human), UniProt Q02223 1-54, phycoerythrin (PE) label, site not stated) (assay: flow cytometry; transduced PBMCs stained with PE-labelled BCMA extracellular domain-Fc (BCMA-PE)).
T1 construct: Staining reagent; not shown: Fc part
T1 sequence: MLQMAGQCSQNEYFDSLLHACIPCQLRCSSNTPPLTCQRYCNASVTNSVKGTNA
Experimental: 5×10⁵ human PBMCs were plated in each well of a 24-well plate. Cells were transduced with recombinant lentiviruses LV 1 to LV 19 at a MOI 2 based on the Jurkat functional titer, or a 0.5 mL volumetric transduction if MOI 2 was not achievable. Seven days post-transduction, PBMCs were harvested and stained with BCMA-PE and analyzed by flow cytometry to assess the percentage of anti-BCMA CAR expressing cells. FIG. 2B.
B1: binds.
B2: binds.
B3: binds.
B4: binds.
B5: binds.
B6: binds.
B7: binds.
B8: binds.
B9: binds.
B10: binds.
B11: binds.
B12: binds.
B13: binds.
